Assay results from patent US20260286322A1, “PROTEIN TYROSINE P[…] DOMAIN PEPTIDE DIMER FOR NERVOUS SYSTEM REPAIR” (NervGen Pharma Corp., priority 2023, published 2026).
Ends that are not written are not given here.

Key:
[1] = In vitro stability in rat plasma; format: in vitro ADME; settings: after 30 minutes of incubation, 37° C., 1.6 μM
Description: (§1) Stability of Compound 7 (human variant) in physiological buffer (Hanks Balanced Salt Solution, HBSS) and in plasma was evaluated in comparison with Compound 3.
(§2) Compound stability was defined as % recovery of the compound after 5 min, 15 min, and 30 min of incubation in the presence of corresponding plasma.
(§3) 200 μL of 1.6 μM Compound 3 and Compound 7 solutions were incubated in the matrix (Hank's Balanced Salt Solution or plasma) at 37° C. for 0, 5, 15, or 30 minutes. The incubation was followed by addition of 200 μL acetonitrile, vortexing and subsequent acidification with 45 μL of pure acetic acid. After additional vortexing, the resulting mixture was centrifuged for 5 min at 14,000 rpm and the supernatant was collected for analysis.
(§4) Determination of the Compound 3 or Compound 7 levels in the supernatant samples prepared as described above was performed using an LC-MS/MS method as follows: 40 μL of 5 μM Compound 7 in 10% acetic acid aqueous solution was added to 160 μL of the supernatant. […]
(§5) Percentages of Compound 3 and Compound 7 recovery after 0 minutes (at the start of the experiment), 5 minutes, 15 minutes, and 30 minutes incubation time points were calculated by dividing the corresponding peak areas by the peak area obtained from the samples prepared with no incubation (0 minutes of incubation time). […]

[2] = Self-assembly by negative stain transmission electron microscopy; format: physicochemical; settings: for colloidal structures from self-assembly in isotonic saline (TEM): 20 mg/mL in 0.9% (w/v) sodium chloride; for colloidal structures from self-assembly in water (TEM): 20 mg/mL in sterile water
Description: The patterns of self-assembly of Compound 7 and Compound 3 were analyzed by negative stain transmission electron microscopy.
Compound 3 and Compound 7 were dissolved in sterile water or in 0.9% (w/v) sodium chloride in sterile water to obtain a 20 mg/mL solution. Formvar/carbon coated grids were exposed to […] drops of the Compound 3 or Compound 7 solutions for approximately 1 minute, blotted and then exposed to […] drops of sterile water for 10 seconds, blotted again and then stained with 2% (w/v) aqueous uranyl acetate for 30 seconds, The stained samples were exposed to […] drops of sterile water for 10 seconds and blotted dry prior to examination by transmission electron microscopy.

[3] = In vitro stability in physiological buffer (Hanks Balanced Salt Solution, HBSS); format: physicochemical; settings: 30 minutes incubation, 37° C., 1.6 μM
Description: as §1, §2, §3, §4, §5

[4] = In vitro stability in human plasma; format: in vitro ADME; settings: after 30 minutes of incubation, 37° C., 1.6 μM
Description: as §1, §2, §3, §4, §5

[5] = In vitro stability in dog plasma; format: in vitro ADME; settings: after 30 minutes of incubation, 37° C., 1.6 μM
Description: as §1, §2, §3, §4, §5

Substance | recovery rate in rat plasma [1] | colloidal structures from self-assembly in isotonic saline (TEM) [2] | colloidal structures from self-assembly in water (TEM) [2] | % recovery in HBSS [3] | recovery rate in human plasma [4] | recovery rate in dog plasma [5]
TAT-Cys-human PTPRS wedge domain homodimer (GRKKRRQRRRCDMAEHTERLKANDSLKLSQEYESI; also: disulfide homodimer) [Compound 7] | 92% | larger-in-size helical colloidal particles | rod-shaped nanostructures | 90% | 99% | 100%
TAT-Cys-PTPRS (GRKKRRQRRRCDMAEHTERLKANDSLKLSQEYESI) [Compound 3] | low stability | amyloid-like fibrillar meshwork | rod-shaped nanostructures | about 42% | low stability | low stability
